Assay results reported in the domain aggregation screens of Martell et al. (2025).

Experiment: soluble fraction after stress (log2 fold change); higher = more stays soluble; pooled small domains, quantitative proteomics
Details: stress: 75 degC
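Also: 20 min heating vs room temperature control held 20 min.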

Sequence	soluble fraction (log2)
HMTREAILDTAEELLQRRGYNAFSYHHIAVQLGIRNAAIHYHFPAKEDLGIELVSRFRIRLAE	-0.28
HMTRLSSREAQVISLVRDGMTNQQIAERLELSPLTIKNHVQNILRKLDVSNRAQAVAKAVKARLI	-0.774
HMTRRGPLTEGDRVQVRDPKGRFHQVILVRGGRFQSNRGGFNHDDVIGRPDGQVIITDEGRQFQIL	0.493
HMTRYEQLAAQIRQQIEDNIWQSGDRLPSLRDTVKQSGLSLMTVLQSYQLLESQGWITARPQSGYYVAHR	0.284
HMTSGTLTLTQDTPVYTEPNKDGGVAYVQPQGDIQWDKYIFANGDNWYSFVQKNRDQEVRFYIAYSDVG	-0.561
HMTSHSFVITEEVGQRLDRFISDQLDTVSRTMIQKHIRSGAVVVNGKQVKSNYLLVLNDRINIALK	-2.75
HMTSISMDEKVVLGWHQVTTGAANSGMDKVVSNTSGLNVISPTWFKLSDNKGNYISIASKDYVDAAHKKGL	-0.108
HMTSKTLSADGGENTRLDKFLSNHLPEISRTKIQKMINDGLVYVNQNYAKASLVLDGTELISYTIPD	-0.0211
HMTSLTDDELSVVMLVREREISFDEITSETGFDAARLNSVLTMLKIKGIIDETTGKHYRISGGA	-1.01
HMTSLVRTSNLDGFEPLARSIGVDPVMELMRFGIPPDALIRENMFISFIGFIRLLEHTALAG	0.364
HMTSMYYLNKAVKEGNAKAIRQLLSAGININVRKRETSTPLDFAIKYKQTEIADLLRKHGGKTAEELKAEE	-0.668
HMTSNEKARNAASAERRADIVAAARELYEEQGLSKTSVQDITNRMGVARSLFYHYFPDKEAVTSAVLDDYV	0.0232
HMTSPELIELGERIRKRRQEMNLSQEALAEKAGISINTVSRVEGGQTAMSIEIFRKMIEILETDANGL	-0.586
HMTSRIHDYWTSPGQPGYAKIGWGTAGDFRRAKALIGEKIAANSPEDMRYLNQIIAQWHFDALGYWPGDH	-3
HMTSRLLTPRQRYVFDTAMKEGFYDVPRRITLTELASVLDVAKSTLSAQLHRIESTVHHAYADDIRRRS	-2.55
HMTSSQLNIEELERRMMMHLEQNGFITRSIYTNLTGRLKWKATEDLKIFVEKGLIRKMGRGNQMYYVKVE	-1.74
HMTSSQRDSILEFLKTRKDHPTADVVYMNVRKSFPNISLGTVYRNLTLLSDIGQIAKIRVGDGVDHFDADT	-0.505
HMTSSSGTITADWLNVRSGAGTNFSRLGSIAGGTRLTVISVHGEWYKITASFEGEIRTGYVHSQYVQMDGE	-3.87
HMTSTEQQIEQFIGTLVSLGGSAGNQRLLEALGWQDSIYQRVKQQLIDDGRIRPGRGRGGSVVLAE	-0.576
HMTSVAGIERFLASGAIKGMGAATAKLIVEHFGADTLNMLDMYPERLTEIKGIGPKKATAIIEGYRELS	-0.897
HMTSVMAWRLITPIPQHGIIRSSQVQLQKHAPNSLKFLDVDSSPVGKQVKHGIAAGHWLSKDDFTE	-1.05
HMTTAASIGRLVRDARKQRGLTQHELASLLSTSQSAIHRIESGNQNLSLEMINRIAQALESPLIVPGG	-0.377
HMTTIRQQAEVPLSAAGRRFDQALAEMFPAYSRSRLSGWIKAGAATLDGAPAAPRQLLRGGERVELDVELE	-0.166
HMTTKGGLVRDTVLNEFRDSEFTRREVELVLNGVASERTIRGALSEMVERGELTQVNFGISTRYRLNQ	-0.563
HMTTLEGIEKYLGSGMIRGIGPAYAGRLTKVFGEAVFDVIEQSPERLREVEGIGPKRVSRIVSGWAEQ	-0.31
HMTTLLNHLKGTRLEAGLSQQALARLAGISRQAYSALESGSSNPSTEVALRLARALKTSVDHLFSLPE	-1.09

Sequence	soluble fraction (log2)
HMTTQVPYTAKLININGGSVVNFRKEPGMNTTIIRTYPVGTEVTVLETGVNWSKVEIDGVTGYVSSYFL	-2.33
HMTTRLLTPRQRQVFDIAIREGFYDSPRRISLTELADLLGVAKSTLSVQLQRVESTIVHTFSEEIRRRS	-2.66
HMTTRQREALLDYLSRHPDQPLTVREIAAGVEPDGVSLSAVYRNLAELEAAGLIRRESRPGSREAVVQYV	-0.0192
HMTTTTTYITNTDAVNIRQQATTSSTSLGKLAKNTILSVKKKSGDWYQITYKKQTAYIHASLVDKKTAKVT	-1.62
HMTTVDYDALRAAILQQVVSEDTTPALTTENTEIKYKFKFGLDTWVDLDGGKIAPAVSAKSYEIQISFKG	0.185
HMTTYVNGSWSGWNGSTVVKLTDGSVWRQAEYHYEYHYAYRPQARLERDELFVEGMSRGVRV	-0.0587
HMTVADMQQKANVKRRNSNSHEAILDATVKLLGSSGYIDFSIEKVASQAGVGKQTIYRWWPSRADLVLEVW	-0.506
HMTVAEVEDRMEASRVRQALDAVGEPHRTTIALAYFTGLTHTEIAQRMGVPLGTVKSRIRDGMAKMRTHLG	-1.24
HMTVDHDERRSMILEAFMRLAAREGLHAVSLRGVAAEAGISLRLVQYYFETKARLMQSGLTALET	-0.141
HMTVKKLIINEDNSGRRIDNYLLSIFNSVPRSKIYNIIRKGEVRVNSSRIKPSYRLEEGDQVRIPPNLDYT	-1.05
HMTVKRNILQELLKTAFKHPEDFRPSKTFYGETGIGQKRFWALYYGHKAVTQKEYYAVADYLG	-0.0737
HMTVLDYNENVLSKVMNAAEINDSDKEAFIAFAKDYNSDDNLYLKKEELETAAGAWNARNVE	0.2
HMTVLTDEIKVILISYIKENDFKKKHGNRKMMMTAQDMYDELVEKGYKISYPTVTQYVQKYRENETT	-1.63
HMTVMTGSQRRKKILELMRDAKEPLSGGALGKETGVSRHVVVQDIALLRTQGYPIVATARGYIINE	-1.32
HMTVRLSVSADGKFFWNESQVSEEELFPRLQAEAAKEPQPDLHIRGDKNVRYEFVAQAMAAAQRAGVRKI	-0.797
HMTVSADQTAADAVIKLINAIGTVSENSGSAISAARSGYDALTDTQKKLVTNYNKLTQAEQVFSSLPS	0.336
HMTVSGNIAGDYKDYLPQKTDVINGMTVTYRMVDDAVYLASWKHAGQNHVFLFNDPVSVERAREMI	-0.556
HMTVSIDSLFDKFEDLQEQGLGDKTEEGQELRGLIRAFIEQEHLSVRITRSTSNQELLDMIEEAMQ	-1.25
HMTVSRRYTENEMETALKAYLATHNFISRRDMQQEFALTIYSARKWLNHFVDVGLIERIGLKNAPIYKL	-0.0893
HMTVTKYGKKILEIVSSSRSHMTAEEIFDALRQTYPTVVLATVYNNLNRLWQDDLIRKVSVEGMPDRYD	-1.28
HMTVVPNIVNQPEAAGTNLLISSNLKPGNRAVQYSDTVKAGDIISQSPEPGAQATLGGKVDYVISQGPAPT	0.174
HMTWIAEIELRLMGNGAVTGAKIVKSTDLKDVDAAIYRAALEASPYPAPESGIGGRFTIKLKY	-0.037
HMTYLIKFDENGRRSDTYVAEEKTQEQVTELLEKGFVLITEEDYQLLVGNVDGKEYIRNADGTYSEYT	0.563
HMTYMWTTDGVNLRSEPNTDSAVVTVLGVGTQVRMIGEEDGWVKVSFNDQEGYIRADFLTTE	-0.198
HMTYSAFITARNKRIAEEYSVLLDSLNISNNVIYRLGSWVVEVNVSDHSRAIDEIYSYERSGRIDKV	-3.1
HMTYYEGYYRKNQKGFGFVIVDGRDEDIYIDAKNMNGALNNDLVVVEELKGQNGKKTEGRVVKVLKKE	-0.17

Sequence	soluble fraction (log2)
HMVADLSGVGDKDIIVDQFIYHEVLPKETIYSIVKSFNVTSEDLNKNNPFLRANGLRIGQVIRIPLKI	-1.27
HMVAEPTYGRTTDVLNIRSGPSTDDERIGQLSRGAVVTILEEKDGWYRLQRGYISADYVTQISAEEASNS	-0.0612
HMVAEPVYGKVTEGPLNVRSAPSTDSEKVDSFSTGKVLTILETLDGWYKVEEGYVSADYVTIIDAAEAASS	-0.162
HMVAGHLSEKKGYYYAVLNYKDYTGKRKSKWVSTGLPVKGNKRRAEKILADIKRDFVPEEPKR	-0.96
HMVAGQDPVKRQQILDGAKRVFLGVGFDAASMNDITREAGVSKGTIYVYFGSKEELFGALIDR	-0.828
HMVAMLDASYRGVMQTISTLLAQGNTERAYDEAVNARGQMSKQQWNNLANLIWERTGQKIDSGVSYK	0.367
HMVDEAQSLERNVLLTVLSRIGRDSRVVLTHDIAQRDNLRVGRHDGVVAVVDRLKGHPLFAHVTL	0.163
HMVDERMVTYINSLDKGNTPFLNELEKEALANYVPIIRREMQSFLKVLLQIKAPLRILEVGTAVGFSTILM	0.0501
HMVDGAHKQQAAVQALTPALKVLAAAPEGKKGQAIQALRAVLKQHGRWLDDATAQQVHEQLLAAGDAQGWQ	0.478
HMVDIGQSIRVELIREGKDSHQAVGYLRDGSMVVVNHGRKLIGSTVEVEITSIVPSSAGKVIFAEYLE	-2.67
HMVDIQTGQKVRIHTSQFAGKIGNITALNVKSAELPNGIRTATASILMQSNENVMLPVSNFDIIE	-0.0419
HMVDIVLDILKIVAEKQPGNQFSQSILMQYQERGGLSKKQLEGLYGKAKRIPEIPQNKLATLEAIILR	-1.84
HMVDKNDLTAIDGIGPFLEKKLNDVGVFTYADIAGWDAAKIEEITQQISFFEGRIEKDDWVGQAQKLIDDQ	-0.124
HMVDKSYIHNQQVASDTWTVQHNLGKYPAVSVADTGNNEVYGDVRHINENTVELKFSHPFSGVAFF	0.61
HMVDKTMYDRYAVDDYVRVIDGPLVGTEGRIIELDRETGNVKIEAVFFGRVTTADINFALIEKVD	-0.717
HMVDLDIENYELEDILNLFRLQYNFVEADLKRAYRMALKLHPDKSGLDGEYFRFYMKAYKIVENIFNFRNR	-1.5
HMVDSVIGSVGRVTVDIDNVEALGQVKLGGMEWSARSTSGDPIPAGTEVRVDRVEGVKVFVTPV	-0.117
HMVDVEMLTTVSDHIEAKLLQGILENHGIPSYSVDEESGEYMRVYMGYSIFGEKIYVRASDLLAAQGYL	-2.23
HMVDWTFPVLVKDVVMMGRYGHMGFLRIPGKKDFESVDNALAKVGMVEYAKQQIGELSGGQR	-0.019
HMVDYSMEDSVWNNKKEHVNEWFDANPEHEGRRVIVDGLFAIGDAQPDLRKRHWSSISVVFADLDNSPIG	-0.327
HMVEDPADNQKAADAVIKKISEIGEVTESSENLIKEARASYDALTDNQKELVTNYDVLVQAEAQLENIKD	0.282
HMVEEVDYGTFMRMIEEKNIGKVEVRAGEIVFTDKDEKQIYKTGAMEDATLTQRLYESGAEFSKDV	-0.0507
HMVEGVSLVEIYVDENSKYNGKLLSEIPKKENTLVIMIQRGEQVIIPHGNIRLESGDMLVVSKTEI	-2.71
HMVEKNALSEEIEGYVNKYGKDRSSLMPVLQAIQRKHSYINDFAQQEVARLLDIHPVEVFSVISFYSFLH	-2.21
